Measurements reported in the RNAGym collection of RNA variant scans (doi:10.7554/elife.80360).

B1: HDV Ribozyme (parent)
chain: GGCCGGCAUGGUCCCAGCCUCCUCGCUGGCGCCGGCUGGGCAACAUUCCGAGGGGACCGUCCCCUCGGUAAUGGCGAAUGGGACCCA

Variants of: B1
Assay: self-cleavage, relative activity (ratio to wild type); higher = more cleavage; co-transcriptional

Row | Variant | self-cleavage
1 | GGCCGGCAUGGUCCCAGCCUCCUCGCUGGCGCCGGCUGGGCGACAUUACGAGGGGACCGUCCCCUCGGUAAUGGCGAAUGGGACCCA [A42G C48A] | 0.7
2 | GGCCGGCAUGGUCCCAGCCUCCUCGCUGGCGCCGGCUGGGCGACAUUGCGAGGGGACCGUCCCCUCGGUAAUGGCGAAUGGGACCCA [A42G C48G] | 0.791
3 | GGCCGGCAUGGUCCCAGCCUCCUCGCUGGCGCCGGCUGGGCGACAUUCCGAGGGGACCAUCCCCUCGGUAAUGGCGAAUGGGACCCA [A42G G59A] | 0.831
4 | GGCCGGCAUGGUCCCAGCCUCCUCGCUGGCGCCGGCUGGGCCACAUUCCGAGGGGACCGUCCCCUCGAUAAUGGCGAAUGGGACCCA [A42C G68A] | 0.253
5 | GGCCGGCAUGGUCCCAGCCUCCUCGCUGGCGCCGGCUGGGCCACAUUCCGAGGGGACCGUCCCCUCGUUAAUGGCGAAUGGGACCCA [A42C G68U] | 0.128
6 | GGCCGGCAUGGUCCCAGCCUCCUCGCUGGCGCCGGCUGGGCCACAUUCCGAGGGGACCGUCCCCUCGGUGAUGGCGAAUGGGACCCA [A42C A70G] | 0.312
7 | GGCCGGCAUGGUCCCAGCCUCCUCGCUGGCGCCGGCUGGGCGACAAUCCGAGGGGACCGUCCCCUCGGUAAUGGCGAAUGGGACCCA [A42G U46A] | 0.554
8 | GGCCGGCAUGGUCCCAGCCUCCUCGCUGGCGCCGGCUGGGCCACAUUCGGAGGGGACCGUCCCCUCGGUAAUGGCGAAUGGGACCCA [A42C C49G] | 0.178
9 | GGCCGGCAUGGUCCCAGCCUCCUCGCUGGCGCCGGCUGGGCCACAUUCCGAGGGGACCGUCCCCUCUGUAAUGGCGAAUGGGACCCA [A42C G67U] | 0.261
10 | GGCCGGCAUGGUCCCAGCCUCCUCGCUGGCGCCGGCUGGGCCACAUUCCGAGGGGACCGUCCCCUCGGUAAUGCCGAAUGGGACCCA [A42C G74C] | 0.166
11 | GGCCGGCAUGGUCCCAGCCUCCUCGCUGGCGCCGGCUGGGCCACAUUCCGAGGGGACCGUCCCCUCGGUAAUCGCGAAUGGGACCCA [A42C G73C] | 0.119
12 | GGCCGGCAUGGUCCCAGCCUCCUCGCUGGCGCCGGCUGGGCGACAUUCCUAGGGGACCGUCCCCUCGGUAAUGGCGAAUGGGACCCA [A42G G50U] | 0.542
13 | GGCCGGCAUGGUCCCAGCCUCCUCGCUGGCGCCGGCUGGGCGACAUUCCCAGGGGACCGUCCCCUCGGUAAUGGCGAAUGGGACCCA [A42G G50C] | 0.287
14 | GGCCGGCAUGGUCCCAGCCUCCUCGCUGGCGCCGGCUGGGCCACAUUCCGAGGGGACCGUCCCCUCGGUAAUGGCGAAUGGGACGCA [A42C C85G] | 0.469
15 | GGCCGGCAUGGUCCCAGCCUCCUCGCUGGCGCCGGCUGGGCGACAUUCCGAGGGGAACGUCCCCUCGGUAAUGGCGAAUGGGACCCA [A42G C57A] | 0.527
16 | GGCCGGCAUGGUCCCAGCCUCCUCGCUGGCGCCGGCUGGGCGACAUUCCGAGGGGACCGUCCCCUCGGUAAUGGUGAAUGGGACCCA [A42G C75U] | 0.397
17 | GGCCGGCAUGGUCCCAGCCUCCUCGCUGGCGCCGGCUGGGCGACAUUCCGAGGGGACCGUACCCUCGGUAAUGGCGAAUGGGACCCA [A42G C61A] | 0.779
18 | GGCCGGCAUGGUCCCAGCCUCCUCGCUGGCGCCGGCUGGGCGACAUUCCGAGGGGACCGUCCCCUCGGUAAUGGCGCAUGGGACCCA [A42G A77C] | 0.0723
19 | GGCCGGCAUGGUCCCAGCCUCCUCGCUGGCGCCGGCUGGGCCACAUUCCGAUGGGACCGUCCCCUCGGUAAUGGCGAAUGGGACCCA [A42C G52U] | 0.282
20 | GGCCGGCAUGGUCCCAGCCUCCUCGCUGGCGCCGGCUGGGCCACAUUCCGAGGGGACCGUCCCCUCGGUAAUGGCGAAUGGGACCAA [A42C C86A] | 0.312
21 | GGCCGGCAUGGUCCCAGCCUCCUCGCUGGCGCCGGCUGGGCCACAUUCCGAGGGGACCGUCCCCUCGGUAAUGGCGAAUGGGACCGA [A42C C86G] | 0.353
22 | GGCCGGCAUGGUCCCAGCCUCCUCGCUGGCGCCGGCUGGGCCACAUUCCGAGGGGACCGUCCCCUCGGUAAUGGCGAAUGGGACCUA [A42C C86U] | 0.178

Row | Variant | self-cleavage
23 | GGCCGGCAUGGUCCCAGCCUCCUCGCUGGCGCCGGCUGGGCCACAUUCCGAGGGGACCGUCCCCUCGGUAAUGGCGAAUCGGACCCA [A42C G80C] | 0.101
24 | GGCCGGCAUGGUCCCAGCCUCCUCGCUGGCGCCGGCUGGGCCACAUUCCGAGGGGACCGUCCCCUCGGUAGUGGCGAAUGGGACCCA [A42C A71G] | 0.361
25 | GGCCGGCAUGGUCCCAGCCUCCUCGCUGGCGCCGGCUGGGCGACAUUCCGACGGGACCGUCCCCUCGGUAAUGGCGAAUGGGACCCA [A42G G52C] | 0.733
26 | GGCCGGCAUGGUCCCAGCCUCCUCGCUGGCGCCGGCUGGGCGACAUUCCGAGGGGACCGUCCCCUCGGUAAUGGCGAAUGGGACGCA [A42G C85G] | 0.522
27 | GGCCGGCAUGGUCCCAGCCUCCUCGCUGGCGCCGGCUGGGCGACAUUCCGAGGGGACCGUCCCCUCGGUAAUGGCGAAUGGGGCCCA [A42G A83G] | 0.361
28 | GGCCGGCAUGGUCCCAGCCUCCUCGCUGGCGCCGGCUGGGCCACAUUCCGAGGGGACCGUCCCCUCGGUAAAGGCGAAUGGGACCCA [A42C U72A] | 0.266
29 | GGCCGGCAUGGUCCCAGCCUCCUCGCUGGCGCCGGCUGGGCGACAUUCCGAGGGGACCGUCCCCUCGGUAAUGGCGAAUGGAACCCA [A42G G82A] | 0.158
30 | GGCCGGCAUGGUCCCAGCCUCCUCGCUGGCGCCGGCUGGGCUACAUUCCGCGGGGACCGUCCCCUCGGUAAUGGCGAAUGGGACCCA [A42U A51C] | 0.665
31 | GGCCGGCAUGGUCCCAGCCUCCUCGCUGGCGCCGGCUGGGCCACAUUCCGAGGGGACCGUCCCCUCGGUAAUGGAGAAUGGGACCCA [A42C C75A] | 0.116
32 | GGCCGGCAUGGUCCCAGCCUCCUCGCUGGCGCCGGCUGGGCGACAUUCCGAGGGGACCGUCCCCUCGGUCAUGGCGAAUGGGACCCA [A42G A70C] | 0.798
33 | GGCCGGCAUGGUCCCAGCCUCCUCGCUGGCGCCGGCUGGGCGACAUUCCGAGGGGACCGUCCCCUCGGUGAUGGCGAAUGGGACCCA [A42G A70G] | 0.623
34 | GGCCGGCAUGGUCCCAGCCUCCUCGCUGGCGCCGGCUGGGCGACAUUCCGAGCGGACCGUCCCCUCGGUAAUGGCGAAUGGGACCCA [A42G G53C] | 0.391
35 | GGCCGGCAUGGUCCCAGCCUCCUCGCUGGCGCCGGCUGGGCCACCUUCCGAGGGGACCGUCCCCUCGGUAAUGGCGAAUGGGACCCA [A42C A45C] | 0.0462
36 | GGCCGGCAUGGUCCCAGCCUCCUCGCUGGCGCCGGCUGGGCGACAUUCCGAGGGGACCGUCCCCUCGGUAAUGACGAAUGGGACCCA [A42G G74A] | 0.0396
37 | GGCCGGCAUGGUCCCAGCCUCCUCGCUGGCGCCGGCUGGGCCACAUUCCGAGGGGACCGUCCCCCCGGUAAUGGCGAAUGGGACCCA [A42C U65C] | 0.268
38 | GGCCGGCAUGGUCCCAGCCUCCUCGCUGGCGCCGGCUGGGCCACAUUCCGAGGGGGCCGUCCCCUCGGUAAUGGCGAAUGGGACCCA [A42C A56G] | 0.415
39 | GGCCGGCAUGGUCCCAGCCUCCUCGCUGGCGCCGGCUGGGCGACAUUCCGAGGGGACCGUCCCCUGGGUAAUGGCGAAUGGGACCCA [A42G C66G] | 0.538
40 | GGCCGGCAUGGUCCCAGCCUCCUCGCUGGCGCCGGCUGGGCGACAUUCCGAGGGGACCGUCCCCUAGGUAAUGGCGAAUGGGACCCA [A42G C66A] | 0.702
41 | GGCCGGCAUGGUCCCAGCCUCCUCGCUGGCGCCGGCUGGGCGACAUUCCGAGGGGACCGUCCCCUCAGUAAUGGCGAAUGGGACCCA [A42G G67A] | 0.435
42 | GGCCGGCAUGGUCCCAGCCUCCUCGCUGGCGCCGGCUGGGCCACAUUCCGAGGGGACCGUCCCCUCGGUAAUGGCGCAUGGGACCCA [A42C A77C] | 0.161
43 | GGCCGGCAUGGUCCCAGCCUCCUCGCUGGCGCCGGCUGGGCCACAUUCCGAGGGGACCGUCCCCUCGGUAAUGGCGUAUGGGACCCA [A42C A77U] | 0.369
44 | GGCCGGCAUGGUCCCAGCCUCCUCGCUGGCGCCGGCUGGGCCACAUUCCGAGGGGACCGUCCCCUCGGUAAUGGCGAAUGGGCCCCA [A42C A83C] | 0.101

Row | Variant | self-cleavage
45 | GGCCGGCAUGGUCCCAGCCUCCUCGCUGGCGCCGGCUGGGCGACAUCCCGAGGGGACCGUCCCCUCGGUAAUGGCGAAUGGGACCCA [A42G U47C] | 0.532
46 | GGCCGGCAUGGUCCCAGCCUCCUCGCUGGCGCCGGCUGGGCCACAUUCCGAGGGGACCGUCCCCUCGGUAAUGGCGAAUGGGACCCU [A42C A87U] | 0.283
47 | GGCCGGCAUGGUCCCAGCCUCCUCGCUGGCGCCGGCUGGGCCACAUUCCGAGGGUACCGUCCCCUCGGUAAUGGCGAAUGGGACCCA [A42C G55U] | 0.409
48 | GGCCGGCAUGGUCCCAGCCUCCUCGCUGGCGCCGGCUGGGCCACAUUCCGAGGGGACCGUCCCCUCGGUAAUGGCGAAAGGGACCCA [A42C U79A] | 0.213
49 | GGCCGGCAUGGUCCCAGCCUCCUCGCUGGCGCCGGCUGGGCCACAUUCCGAGGGGACCGUCCCCUCGGUAAUGGCGAACGGGACCCA [A42C U79C] | 0.124
50 | GGCCGGCAUGGUCCCAGCCUCCUCGCUGGCGCCGGCUGGGCGACAUUCCGAGGGGACCGUCCCCUCGGUAAUGGCGAAUCGGACCCA [A42G G80C] | 0.364
51 | GGCCGGCAUGGUCCCAGCCUCCUCGCUGGCGCCGGCUGGGCCACAUUCCGAGGGGACGGUCCCCUCGGUAAUGGCGAAUGGGACCCA [A42C C58G] | 0.26
52 | GGCCGGCAUGGUCCCAGCCUCCUCGCUGGCGCCGGCUGGGCGACAUUCCGAGGGGACCGUCCCCUCGGUAAAGGCGAAUGGGACCCA [A42G U72A] | 0.369
53 | GGCCGGCAUGGUCCCAGCCUCCUCGCUGGCGCCGGCUGGGCGACAUUCCGAGGGGACCGUCCCCUCGGUAGUGGCGAAUGGGACCCA [A42G A71G] | 0.554
54 | GGCCGGCAUGGUCCCAGCCUCCUCGCUGGCGCCGGCUGGGCGACAUUCCGAGGUGACCGUCCCCUCGGUAAUGGCGAAUGGGACCCA [A42G G54U] | 0.502
55 | GGCCGGCAUGGUCCCAGCCUCCUCGCUGGCGCCGGCUGGGCGACAUUCCGAGGGGACCGUCCCCUCGGUAAUGGCGACUGGGACCCA [A42G A78C] | 0.107
56 | GGCCGGCAUGGUCCCAGCCUCCUCGCUGGCGCCGGCUGGGCGACAUUCCGAGGGGACCGUCCCCUCGGUAAUGGCGAAUGGGACCCG [A42G A87G] | 0.602
57 | GGCCGGCAUGGUCCCAGCCUCCUCGCUGGCGCCGGCUGGGCCACAUUCCGAGGGGACCGUCCCCUAGGUAAUGGCGAAUGGGACCCA [A42C C66A] | 0.332
58 | GGCCGGCAUGGUCCCAGCCUCCUCGCUGGCGCCGGCUGGGCCACAUUCCGAGGGGACCGUCCUCUCGGUAAUGGCGAAUGGGACCCA [A42C C63U] | 0.19
59 | GGCCGGCAUGGUCCCAGCCUCCUCGCUGGCGCCGGCUGGGCGAAAUUCCGAGGGGACCGUCCCCUCGGUAAUGGCGAAUGGGACCCA [A42G C44A] | 0.536
60 | GGCCGGCAUGGUCCCAGCCUCCUCGCUGGCGCCGGCUGGGCCACAUGCCGAGGGGACCGUCCCCUCGGUAAUGGCGAAUGGGACCCA [A42C U47G] | 0.0594
61 | GGCCGGCAUGGUCCCAGCCUCCUCGCUGGCGCCGGCUGGGCCACAUCCCGAGGGGACCGUCCCCUCGGUAAUGGCGAAUGGGACCCA [A42C U47C] | 0.0791
62 | GGCCGGCAUGGUCCCAGCCUCCUCGCUGGCGCCGGCUGGGCGACCUUCCGAGGGGACCGUCCCCUCGGUAAUGGCGAAUGGGACCCA [A42G A45C] | 0.399
63 | GGCCGGCAUGGUCCCAGCCUCCUCGCUGGCGCCGGCUGGGCCACAUUCCGGGGGGACCGUCCCCUCGGUAAUGGCGAAUGGGACCCA [A42C A51G] | 0.26
64 | GGCCGGCAUGGUCCCAGCCUCCUCGCUGGCGCCGGCUGGGCCACAUUCCGUGGGGACCGUCCCCUCGGUAAUGGCGAAUGGGACCCA [A42C A51U] | 0.369
